PMC3360003

Tests used:
[1] = target: Influenza A virus matrix 1 (M1) protein with a C-terminal His6-tag (Influenza A virus A/chicken/Jiangsu/1/1998 (H9N2)); experiment: SEC
[2] = target: Influenza A virus matrix 1 (M1) protein with a C-terminal His6-tag (Influenza A virus A/chicken/Jiangsu/1/1998 (H9N2)); experiment: SEC; […], pH 5.0, 25°C; […]
[3] = target: Influenza A virus matrix 1 (M1) protein with a C-terminal His6-tag (Influenza A virus A/chicken/Jiangsu/1/1998 (H9N2)); experiment: […]; 0.2% ([…], pH 8.0, room temperature, 5 min; […]

Measured: stoichiometry N

Influenza A virus matrix 1 (M1) protein with a C-terminal His6-tag (natural protein)
2: [1] | [2] | [3]
